According to IntAct's records for PubMed 22826121:

B1: Protein KASH5 (Mus musculus), Q80VJ8 (parent)
chain: MHSILRSSLSSREALRMRQLKGLRKERPGRHPLGVRLRAIWTSFLFPNPPHSGGKLRASTAAVEEHQEWSMDLPEGQAGGPTAQMYLWEQPEEASSRPLLSLEEQILNSTFEACDPHKTGTVTVAHLLAYLEAVTGQGPQDVRLQTLARSLDPYGEGAGATVELDTFLVVMRDWIAACQLQGGLERAEETAYEGALASPHLPSVCPEAEESANLESFGGEDPRPEGPATAELLSNLEDLELSNRRLAGENAKLQRSVETAEEGSARLGEEITALRKQLRSTQQALQVAKALDEELEDLKTLAKSLEEQNRSLMAQARHTEKEQQHLAAEVETLQEENEKLLAERDGVKRRSEELATEKDALKRQLCECERLICQREAVLSERTRHAESLARTLEEYRTTTQELRQEISNLEEQLSQSQEGPEELLEGAEAGRVGWIMALPPSLDLEIQAIRQEQDVASAGLSSPLYGVWQWEEVEPEPEPEPEPEPEPEPQEVEFPSEDPARQQTDLQREPVRALEGSRAPCLRLSRSQEEEEEEEESWVLADPSSPLGTYHHKLAPGSSRESCHIVPEMHQALMPVVRDLVPVERSRTQHCLHPQHSPGIRISQHPLVPTPVLGLLLLLLLSILLFSQSPPPTWPHLQLYYLQPPPV
partner: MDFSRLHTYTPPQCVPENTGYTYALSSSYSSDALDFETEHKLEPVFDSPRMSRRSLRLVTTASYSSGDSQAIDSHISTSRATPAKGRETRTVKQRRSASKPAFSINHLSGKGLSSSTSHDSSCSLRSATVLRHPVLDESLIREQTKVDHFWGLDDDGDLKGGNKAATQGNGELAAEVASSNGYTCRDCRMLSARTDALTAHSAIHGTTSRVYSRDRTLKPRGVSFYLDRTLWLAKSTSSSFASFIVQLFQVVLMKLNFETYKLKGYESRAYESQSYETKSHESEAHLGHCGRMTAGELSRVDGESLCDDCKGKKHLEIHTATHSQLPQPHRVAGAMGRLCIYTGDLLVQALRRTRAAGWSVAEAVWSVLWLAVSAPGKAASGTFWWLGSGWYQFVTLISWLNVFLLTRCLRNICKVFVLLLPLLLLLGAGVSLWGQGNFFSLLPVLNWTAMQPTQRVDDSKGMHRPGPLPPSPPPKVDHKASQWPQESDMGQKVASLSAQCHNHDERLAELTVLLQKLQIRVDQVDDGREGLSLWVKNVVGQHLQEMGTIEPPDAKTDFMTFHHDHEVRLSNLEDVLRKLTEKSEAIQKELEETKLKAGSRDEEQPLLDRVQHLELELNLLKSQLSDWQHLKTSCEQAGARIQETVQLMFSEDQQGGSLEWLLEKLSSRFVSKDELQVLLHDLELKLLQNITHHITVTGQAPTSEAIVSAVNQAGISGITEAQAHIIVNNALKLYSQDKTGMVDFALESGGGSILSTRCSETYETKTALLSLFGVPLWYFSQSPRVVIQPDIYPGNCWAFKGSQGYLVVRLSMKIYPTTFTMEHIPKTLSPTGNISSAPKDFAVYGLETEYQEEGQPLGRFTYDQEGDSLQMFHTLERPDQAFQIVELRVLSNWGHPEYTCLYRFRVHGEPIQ
B2: Protein KASH5 (Mus musculus), Q80VJ8 (parent)
chain: B1 chain
B3: Protein KASH5 (Mus musculus), Q80VJ8 (parent)
chain: B1 chain
partner: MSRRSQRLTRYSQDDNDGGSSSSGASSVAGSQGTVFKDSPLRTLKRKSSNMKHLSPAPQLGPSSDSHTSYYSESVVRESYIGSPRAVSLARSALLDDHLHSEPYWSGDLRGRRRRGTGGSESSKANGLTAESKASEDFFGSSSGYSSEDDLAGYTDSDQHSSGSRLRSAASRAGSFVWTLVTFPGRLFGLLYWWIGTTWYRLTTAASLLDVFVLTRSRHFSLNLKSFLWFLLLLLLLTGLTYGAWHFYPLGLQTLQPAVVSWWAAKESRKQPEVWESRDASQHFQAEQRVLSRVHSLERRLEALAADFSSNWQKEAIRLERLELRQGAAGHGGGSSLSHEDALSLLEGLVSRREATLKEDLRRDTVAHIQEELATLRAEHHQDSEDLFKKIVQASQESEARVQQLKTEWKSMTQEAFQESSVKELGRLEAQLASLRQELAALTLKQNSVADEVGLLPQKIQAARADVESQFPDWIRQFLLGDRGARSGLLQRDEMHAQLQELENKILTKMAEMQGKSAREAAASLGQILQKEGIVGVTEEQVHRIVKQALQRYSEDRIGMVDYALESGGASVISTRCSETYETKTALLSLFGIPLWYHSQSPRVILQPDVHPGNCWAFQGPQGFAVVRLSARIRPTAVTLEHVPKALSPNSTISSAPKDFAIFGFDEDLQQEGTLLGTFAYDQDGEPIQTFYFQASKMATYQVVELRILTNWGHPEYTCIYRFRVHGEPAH

Variants of: B1
Conditions: with sun1_mouse Sun1, Q9D666

effect of a mutation on the interaction	Variant
disrupting interaction strength	P645A;P646A;P647A

Variants of: B2
Conditions: with sun1_human SUN1, O94901
Chain of sun1_human SUN1, O94901 (O94901 whole entry): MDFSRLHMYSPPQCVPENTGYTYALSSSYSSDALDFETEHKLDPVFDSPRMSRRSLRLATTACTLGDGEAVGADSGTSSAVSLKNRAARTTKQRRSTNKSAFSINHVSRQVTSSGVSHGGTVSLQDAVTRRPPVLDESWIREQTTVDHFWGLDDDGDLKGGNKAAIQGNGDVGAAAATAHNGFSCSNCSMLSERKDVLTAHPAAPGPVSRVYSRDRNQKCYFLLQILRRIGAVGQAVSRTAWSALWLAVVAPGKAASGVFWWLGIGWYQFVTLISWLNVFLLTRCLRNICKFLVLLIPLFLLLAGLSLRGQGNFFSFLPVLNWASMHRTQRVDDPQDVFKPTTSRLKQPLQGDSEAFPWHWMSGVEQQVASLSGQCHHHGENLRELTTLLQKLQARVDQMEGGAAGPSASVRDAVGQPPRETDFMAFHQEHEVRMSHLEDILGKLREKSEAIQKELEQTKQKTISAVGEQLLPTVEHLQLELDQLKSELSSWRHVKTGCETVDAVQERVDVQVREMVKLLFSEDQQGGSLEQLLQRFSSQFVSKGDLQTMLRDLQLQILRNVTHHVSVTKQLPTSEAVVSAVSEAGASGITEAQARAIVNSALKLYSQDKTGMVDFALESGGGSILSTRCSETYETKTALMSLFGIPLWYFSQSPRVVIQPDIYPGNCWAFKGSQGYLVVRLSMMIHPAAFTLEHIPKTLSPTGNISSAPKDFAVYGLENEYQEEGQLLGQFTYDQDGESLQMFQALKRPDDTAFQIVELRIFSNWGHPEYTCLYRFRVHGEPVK

effect of a mutation on the interaction	Variant
disrupting interaction	P645A;P646A;P647A

Variants of: B3
Conditions: with sun2_mouse Sun2, Q8BJS4

effect of a mutation on the interaction	Variant
disrupting interaction strength	P645A;P646A;P647A
